This note sets out measurements from patent US20200206312A1 (EISAI, published 2020).

For test [1], the target named is T1, Recombinant human NRP1 with His Tag (Sino Biological Inc.; Cat #1001-H08H) (human, UniProt O14786-2 22-644).
T1 construct: also called Neuropilin 1
T1 sequence (looked up): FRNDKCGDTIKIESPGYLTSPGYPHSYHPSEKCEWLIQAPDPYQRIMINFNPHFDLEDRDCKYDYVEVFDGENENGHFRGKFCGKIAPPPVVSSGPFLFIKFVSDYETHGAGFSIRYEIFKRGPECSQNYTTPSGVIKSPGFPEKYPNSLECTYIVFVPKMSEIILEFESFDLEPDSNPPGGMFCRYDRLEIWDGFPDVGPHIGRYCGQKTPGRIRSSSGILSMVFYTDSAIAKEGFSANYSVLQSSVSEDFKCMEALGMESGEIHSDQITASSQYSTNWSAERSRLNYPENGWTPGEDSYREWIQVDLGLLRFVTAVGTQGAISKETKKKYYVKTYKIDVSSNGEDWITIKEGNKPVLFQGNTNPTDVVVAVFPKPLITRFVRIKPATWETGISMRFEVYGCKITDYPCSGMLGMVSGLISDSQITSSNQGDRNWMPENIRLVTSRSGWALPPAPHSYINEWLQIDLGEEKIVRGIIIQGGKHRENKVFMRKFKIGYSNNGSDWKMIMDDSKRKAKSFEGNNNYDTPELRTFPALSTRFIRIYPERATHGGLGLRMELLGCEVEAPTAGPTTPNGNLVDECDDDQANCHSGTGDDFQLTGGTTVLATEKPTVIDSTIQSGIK
Kind of test: BLI (Octet Red96), biotinylated VEGF165 on streptavidin sensor, NRP1 in solution. (BLI is a label-free optical method that tracks binding on a fibre tip over time.)

Test [2] addresses T1, Recombinant human NRP1 with His Tag …. Kind of test: BLI (Octet Red96), biotinylated VEGF165 on streptavidin sensor, NRP1 in solution; value 4 of 6 in the cell.
The target is the same in test [3]. Kind of test: BLI (Octet Red96), biotinylated VEGF165 on streptavidin sensor, NRP1 in solution; value 2 of 6 in the cell.
Test [4] shares this target. Kind of test: BLI (Octet Red96), biotinylated VEGF165 on streptavidin sensor, NRP1 in solution; value 3 of 6 in the cell.
The target is the same in test [5]. Kind of test: BLI (Octet Red96), biotinylated VEGF165 on streptavidin sensor, NRP1 in solution; value 6 of 6 in the cell.
For test [6] the target is unchanged. Kind of test: BLI (Octet Red96), biotinylated VEGF165 on streptavidin sensor, NRP1 in solution; value 5 of 6 in the cell.
Test [7] shares this target. Kind of test: BLI (Octet Red96), biotinylated VEGF165 on streptavidin sensor, NRP1 in solution; value 1 of 6 in the cell.

B1: Biotinylated recombinant Human VEGF165 (ACRO Biosystems; Cat # VE5-H8210) (ligand, UniProt P15692-4 27-191, looked up)
chain: APMAEGGGQNHHEVVKFMDVYQRSYCHPIETLVDIFQEYPDEIEYIFKPSCVPLMRCGGCCNDEGLECVPTEESNITMQIMRIKPHQGQHIGEMSFLQHNKCECRPKKDRARQENPCGPCSERRKHLFVQDPQTCKCSCKNTDSRCKARQLELNERTCRCDKPRR
notes: also called biotinylated VEGF
As a reminder, the Kd is the constant that tells how readily two partners part at equilibrium. Take B1: the Kd was 40 to 98 nM in test [1]; 98 nM in test [2]; 26 nM in test [3]; 75 nM in test [4]; 26 nM in test [5]; 18 nM in test [6]. Further, the Kd in test [7] was 43 nM.
